One molecule from patent US20100047230A1 (HELLENIC PASTEUR INSTITUTE, published 2010) can be followed below.

Experiment in all cases: ELISA on coated antigen
One assay addresses T1, alpha1-ECD of human AChR (human, UniProt P02708 21-230, limits assumed).
T1 construct: extracellular domain; Irrelevant antigen control; also called α1-ECD; α1-AChR

In the next assay the target is T2, bovine serum albumin (bovine, UniProt P02769 25-607).
T2 construct: Irrelevant antigen control; also called BSA

The next assay concerns the target T3, human serum albumin (human, UniProt P02768 25-609).
T3 construct: Irrelevant antigen control, produced in P. pastoris; also called HSA

T2 sequence (P02769 25-607 limits assumed): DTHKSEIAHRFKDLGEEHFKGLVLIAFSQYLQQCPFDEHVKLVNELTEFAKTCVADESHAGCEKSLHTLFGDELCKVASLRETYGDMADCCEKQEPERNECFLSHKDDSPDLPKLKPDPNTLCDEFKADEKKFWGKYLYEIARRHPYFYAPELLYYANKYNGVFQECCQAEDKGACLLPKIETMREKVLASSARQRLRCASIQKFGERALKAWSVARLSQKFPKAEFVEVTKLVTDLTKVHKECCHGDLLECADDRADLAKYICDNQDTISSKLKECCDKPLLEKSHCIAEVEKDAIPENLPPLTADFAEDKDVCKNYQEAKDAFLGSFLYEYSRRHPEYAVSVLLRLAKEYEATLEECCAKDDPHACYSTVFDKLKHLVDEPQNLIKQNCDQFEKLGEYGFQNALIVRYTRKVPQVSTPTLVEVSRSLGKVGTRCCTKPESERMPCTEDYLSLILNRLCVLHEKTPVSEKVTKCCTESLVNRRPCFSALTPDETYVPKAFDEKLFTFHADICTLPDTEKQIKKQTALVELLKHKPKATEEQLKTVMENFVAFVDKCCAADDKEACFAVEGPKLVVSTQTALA
T1 sequence (P02708 21-230 limits assumed): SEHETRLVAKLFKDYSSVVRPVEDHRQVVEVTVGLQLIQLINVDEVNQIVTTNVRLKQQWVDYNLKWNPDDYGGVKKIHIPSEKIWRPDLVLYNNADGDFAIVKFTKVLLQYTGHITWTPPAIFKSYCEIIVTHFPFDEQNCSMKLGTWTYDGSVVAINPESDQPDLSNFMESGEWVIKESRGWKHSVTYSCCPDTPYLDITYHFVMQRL

B1: Fab63 (Fab, V domains shown)
VH: EVQLLEWGPGLVKPSGTLSLTCAVSGGSIRDSNWWGWVRQPPGKGLEWIGEIYHSGTTNYNPSLKSRVTISVDKSKNQFSLNLSSVTAADTAVYYCAREDCSYGSCYFDYWGQGTLVTVSS
VL: ELTLTQSPSSLSASLGDRVTIRCRASQSISAALNWYQQKPGKAPKLLIHDVSTLQSGVPARFSGGGSETDFTLTISSLQPEDFATYYCQQSYRVPLTFGGGTRLEIK
notes: Fully human soluble Fab made in E. coli from pComb3H; Heavy chain is an Fd of the gamma1 isotype (VH-CH1), light chain is kappa (VL of the K subgroup, with Ckappa); also called human Fab 63; clone 63
In the case of B1, the binding result in the assay with alpha1-ECD of human AChR, with bovine serum albumin and with human serum albumin was “no binding (tested: antigen coated at 10 µg/ml)” each time.
